What is called EC50 is the concentration giving half of the maximal effect. Broadly, the Kd is the equilibrium constant for the complex coming apart. One may read the koff as the rate constant with which the complex falls apart. In general, kon refers to a measure of how fast the partners come together.

Experimental findings from patent US20190367619A1 (ARGENX, published 2019) are described below.

The target of assay [1] is T1, recombinant human galectin-10, TEV-cleaved (human, UniProt Q05315 1-142).
T1 sequence: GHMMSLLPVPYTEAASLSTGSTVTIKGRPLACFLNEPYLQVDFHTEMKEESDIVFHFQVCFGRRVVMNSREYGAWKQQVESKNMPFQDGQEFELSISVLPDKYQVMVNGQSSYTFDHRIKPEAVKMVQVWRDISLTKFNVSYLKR
As to the kind of experiment: cell-based or functional assay.

For assay [2], the target named is T1, recombinant human galectin-10, …. As to the kind of experiment: cell-based or functional assay. The source holds these as a separate data set.
For assay [3], the target named is T2, human galectin-10-His (human).
T2 construct: The last M of the tag may be Met1 of galectin-10; also called humanGal10-His; hGal10
T2 chain: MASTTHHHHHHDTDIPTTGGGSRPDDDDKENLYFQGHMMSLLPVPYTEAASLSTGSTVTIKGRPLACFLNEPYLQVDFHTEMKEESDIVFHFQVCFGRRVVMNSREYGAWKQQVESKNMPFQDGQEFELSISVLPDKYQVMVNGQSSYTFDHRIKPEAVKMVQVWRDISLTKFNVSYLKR
As to the kind of experiment: ELISA, coated antigen 0.5 ug/mL. How it is done: (§1) In a similar setup to that used during the characterization of the scFv-human Fc molecules, the relative binding properties of the 7 mouse IgG1 antibodies were analyzed by ELISA. A Maxisorp plate was coated overnight with 0.5 μg/mL of human or cynomolgus WGS or YRT isoform of galectin-10-His. Then a serial dilution of each clone (from 100 nM, dilution 1/4, 12 points of dilutions) was incubated on coated galectin-10. After several washing steps, detection of the bound mouse IgG1 was carried out with an anti-mouse Fc-HRP antibody (DAMPO, Jackson ImmunoResearch, Catalog 715-035-150). Absorbance was measured at 450 nm (reference at 620 nm) with Tecan instrument. The raw data (OD values) were plotted on GraphPad Prism 7.01. The EC50 values for each antibody, calculated with a non-linear regression (log(agonist) vs. response Variable slope (four parameters)), are shown in the table below. Antibody 1D11 from the previous panel was included for comparison.

Assay [4] has as its target T3, cynomolgus galectin-10-His, WGS isoform (cynomolgus).
T3 construct: also called cynoGal10-WGS; not shown: His tag
T3 chain: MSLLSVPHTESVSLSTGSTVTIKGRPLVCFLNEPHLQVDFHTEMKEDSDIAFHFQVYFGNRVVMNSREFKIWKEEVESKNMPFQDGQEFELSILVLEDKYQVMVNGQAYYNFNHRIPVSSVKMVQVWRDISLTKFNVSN
As to the kind of experiment: ELISA, coated antigen 0.5 ug/mL. How it is done: as §1
In general terms: In an ELISA, binding on a coated surface is turned into a signal by an enzyme label.

Assay [5] addresses T2, human galectin-10-His. As to the kind of experiment: SPR Biacore T3000, mouse IgG1 captured. How it is done:
The binding capacity of the mouse IgG1 antibody panel to galectin-10 was analysed on Biacore T3000. For this purpose, a capture approach was used, where a fixed concentration (1.5 μg/mL) of the mouse IgG1 clone was captured by polyclonal anti-mouse Fc antibodies immobilized on CM5 Chip to reach a binding signal around 150 RU. Then a serial dilution of human and cynomolgus WGS isoform of galectin-10-His (serial dilution, 1 over 2 from 5 μg/mL) diluted in HBS-EP pH7.4 was injected. Raw data were analysed via BIA evaluation software with a blank subtraction. The kd/KD and Rmax of each mAbs to galectin-10-His was determined using the Fit Kinetics simultaneous ka/kd/Binding with mass transfer/Local Rmax on BIA evaluation software.

Assay [6] addresses T4, TEV-cleaved wild-type recombinant human galectin-10 (soluble, in Fab complexes, or as recombinant galectin-10 … (human, UniProt Q05315 1-142)).
T4 sequence: T1 sequence
Kind of assay: cell-based or functional assay.

The target of assay [7] is T5, human galectin-10-His (recombinant human galectin-10 with TEV-cleavable N-terminal His-tag) (human).
T5 construct: SEC-MALLS: dimer in solution; also called Gal10-His; humanGal10-His
T5 chain: T2 chain
As to the kind of experiment: ELISA, mouse IgG1 on coated galectin-10-His (0.2 ug/mL). How it is done:
In a similar setup to that used during the characterization of the scFv-human Fc molecules, the relative binding affinities of the 10 mouse IgG1 antibodies were analyzed by ELISA. A Maxisorp plate was coated overnight with 0.2 μg/mL of galectin-10-His. Then a serial dilution of each clone (from 100 nM, dilution 1/4, 12 points of dilutions) was incubated on coated galectin-10. After several washing steps, detection of the bound mouse IgG1 was carried out with an anti-mouse Fc-HRP antibody. Absorbance was measured at 450 nm (reference at 620 nm) with Tecan instrument. A mouse IgG1 isotype control was used as negative control. A polyclonal anti-galectin-10 antibody was used as positive control for the coating of galectin-10. The raw data (OD values) were plotted on GraphPad Prism 7.01. The EC50 values for each antibody, calculated with a non-linear regression (log(agonist) vs. response Variable slope (four parameters)), are reported in Table 7 below.

For assay [8], the target named is T5, human galectin-10-His (recombinant …). As to the kind of experiment: BLI tandem on galectin-10-His; competitor: saturating 1C09 mIgG1 (10 ug/mL). The procedure:
(§2) In order to identify the galectin-10 binding sites of the different clones, an epitope mapping method (TANDEM), using the BLI technology, was established. Briefly, the galectin-10-His was captured on anti-HIS 1K sensor tips, before incubation with an excess of one antibody (called the “saturating” antibody) then directly transferred to a solution containing the “competitor” antibody at a suboptimal concentration. If the “saturating” and the competitor antibody bind to the same binding sites, no binding of “competitor” will be detected (expressed in nm shift).

Assay [9] shares this target. Kind of assay: BLI tandem on galectin-10-His; competitor: saturating 1D11 mIgG1 (10 ug/mL). The procedure:
as §2

Assay [10] has the same target. As to the kind of experiment: BLI tandem on galectin-10-His; competitor: saturating 2C07 mIgG1 (10 ug/mL). The procedure:
as §2

Assay [11] shares this target. Kind of assay: BLI tandem on galectin-10-His; competitor: saturating 2F09 mIgG1 (10 ug/mL). How it is done:
as §2

Assay [12] shares this target. Kind of assay: BLI tandem on galectin-10-His; competitor: saturating 4E08 mIgG1 (10 ug/mL). The procedure:
as §2

Assay [13] shares this target. As to the kind of experiment: BLI tandem on galectin-10-His; competitor: saturating 6A05 mIgG1 (10 ug/mL). The procedure:
as §2

The target is the same in assay [14]. As to the kind of experiment: BLI tandem on galectin-10-His; competitor: saturating 6A08 mIgG1 (10 ug/mL). The procedure:
as §2

For assay [15] the target is unchanged. Kind of assay: BLI tandem on galectin-10-His; competitor: saturating 6B06 mIgG1 (10 ug/mL). The procedure:
as §2

The target is the same in assay [16]. Kind of assay: BLI tandem on galectin-10-His; competitor: saturating 6E10 mIgG1 (10 ug/mL). The procedure: as §2
Assay [17] has the same target. Kind of assay: BLI tandem on galectin-10-His; competitor: saturating 6F06 mIgG1 (10 ug/mL). The procedure:
as §2

Assay [18] has the same target. Kind of assay: BLI tandem on galectin-10-His; isotype control as saturating antibody (10 ug/mL). How it is done: as §2
The target is the same in assay [19]. Kind of assay: SPR Biacore T3000, mouse IgG1 captured by anti-mouse Fc, galectin-10-His as analyte. How it is done:
The binding capacity of the mouse IgG1 antibodies to galectin-10 was analyzed on Biacore T3000. For this purpose, a capture approach was set up. A CM5 Chip was coated with polyclonal anti-mouse Fc at 8000 RU, then a fixed concentration of the mouse IgG1 antibody panel (1.5 μg/mL), diluted in HBS-EP pH7.4, was captured to reach a binding signal around 150 RU. Finally, a serial dilution of galectin-10-His (serial dilution, 1 over 2 from 5 μg/mL) diluted in HBS-EP pH7.4 was injected. Raw data were analyzed via BIA evaluation software with a blank subtraction (4-3). The kd/KD and Rmax of each mAb to galectin-10-His was determined using the Fit Kinetics simultaneous ka/kd/Binding with mass transfer/Local Rmax on BIA evaluation software.

Changes are numbered by the printed parent chain. A value given as a limit tells only on which side of the number the result lay.

B1: 1D11 mouse IgG1 (antibody, V domains shown)
VH: QVQLVESGGGLVQPGGSLRLSCAASGFTFDDYAMSWVRQAPGKGLEWVSGISWNGGSTYYAESMKGRFTISRDNAKNTLYLQMNSLKSEDTAVYYCAKDRNLGYRLGYPYDYWGQGTQVTVSS
VL: QSVLTQPPSVSGSPGETVTISCAGTSSDVGYGNYVSWYQQLPGMAPRLLIYEVNKRASGITDRFSGSKSGNTASLTISGLQSEDEGDYYCASYRSSNNAVFGGGTHLTVL
notes: Llama VH and VL on mouse IgG1 heavy chain constant domains (CH1-CH2-CH3) and mouse lambda light chain constant domain; also called 1D011; 1D11 mIgG1
With B1, in assay [1], the “50% dissolution (min) of CLCs, antibody 50 uM” value came out at 30.1 min and the “90% dissolution (min) of CLCs, antibody 50 uM” value was found to be 56.7 min. Also, in [2], the “50% crystal dissolution (min), 50 uM” value is 100 min and the “90% crystal dissolution (min), 50 uM” value was more than 120 min. In the assay with human galectin-10-His [3], this molecule had an EC50 of 0.1 nM and an OD values of 2 OD. For the same molecule, in assay [4], the OD values was 0.05 OD and the binding result is “no binding (tested: serial dilution from 100 nM)”. In the assay with human galectin-10-His [5], the Kd is 0.7 nM, the koff was found to be 0.00931 s⁻¹ and the kon stood at 1.27e+07 M⁻¹ s⁻¹.

B2: 2F09 mouse IgG1 (antibody, V domains shown)
VH: QVQVQESGPGLVKPSQTLSLTCTVSGGSITTNYFYWSWIRQSPGKGLEWIGAIAYSGRTYYSPSLKSRTSISRDTSNNQFTLQLSSVTPEDTAVYYCARGPKGLASYYDYWGQGTQVTVSS
VL: SSALTQPSAVSVSLGQTARITCQGGNFGYYYVSWYQQKPGQAPVLVIYRDSGRPSGIPERFSGSSSGDTATLTISGAQAEDEADYYCQSGSSSDNTVFGGGTHLTVL
notes: VH on mouse IgG1 heavy chain constant domains (CH1-CH2-CH3), VL on mouse lambda light chain constant domain; also called 2F09 mIgG1
B2: in [6], the “100% Solubilization of CLC (Conc uM)” value came to 10.7 µM. Also, in assay [7], the Bmax was 3.29 OD. Further, the half-maximal effective concentration (EC50) in assay [7] was determined as 0.05 nM. Besides, the “binding signal (nm)” value stood at 0.04 nm in assay [8]; 0.12 nm in assay [9]; 0.05 nm in assay [10]; 0.03 nm in assay [11]; 0.1 nm in assay [12]; 0.12 nm in assay [13]. Besides, the “binding signal (nm)” value in assay [14] is 0.07 nm; in assay [15], 0.03 nm; in assay [16] it was 0.03 nm; in assay [17], 0.06 nm; in [18], 1.14 nm. Besides, the Kd in assay [19] worked out at 0.3 nM. Further, the koff in [19] came to 0.00034 s⁻¹.

B3: 6A05 mouse IgG1 (antibody, V domains shown)
VH: EVQLVESGGGLVQPGGSLRLSCAASGFTFSSYAMSWVRQAPGKGLEWVSAINSGGGWTSYVDSVKGRFTISRDNAKNTLYLQMDSLKPEDTAVYYCTKYSGPELNTQYGMDYWGKGTLVTVSS
VL: B2 VL with S1N, S2F, A3M, Y29S, V32A
notes: also called 6A05 mIgG1
Regarding B3, in assay [6], the “100% Solubilization of CLC (Conc uM)” value came to 10.1 µM. For the same molecule, the Bmax in [7] was determined as 1.74 OD. Besides, in [7], the EC50 was 0.07 nM. The “binding signal (nm)” value in assay [8] is 0 nm; in assay [9], 0.04 nm; in assay [10], 0.01 nm; in assay [11], 0.01 nm; in [12], -0.03 nm; in [13] it was 0.05 nm. Besides, the “binding signal (nm)” value in assay [14] was 0 nm; in [15], 0 nm; in assay [16], -0.03 nm; in [17] it was 0.02 nm; in assay [18] it was 1.02 nm. Further, the Kd in assay [19] came to 0.6 nM. In addition, the koff in assay [19] is 0.00483 s⁻¹.
